Experimental findings from patent publication US20250215091A1, “Anti-GAL3 Antibodies and Compositions” (Les Laboratoires Servier, priority 2022, published 2025) are described below.

Experiment [1] deals with T1, full length mouse Galectin-3 (mouse, UniProt P16110 2-264).
T1 construct: Printed as 'full length'; recombinant, immobilized through a histidine tag; also called m-Gal3-FL; murine Gal3
Nature of the experiment: SPR Biacore T-200, antibody captured by anti-human Fc, Gal3 in solution. Here is the method: (§1) The CM5 sensor surface was first immobilized with an anti-human Fc mAb using a standard protocol. The entire sensor surface was first activated by injecting a 1:1 (v/v) mixture of 400 mM EDC and 100 mM NHS at a flow rate of 10 μL/minute for 7 minutes. Monoclonal anti-human Fc antibody (Millipore AP113), 25 μg/mL in Na acetate pH5, 360 s were flowed at 10 μL/minute to reach 10000 RU on both flow cells followed by the injection of 1 M ethanolamine, pH8.5 for 7 minutes at a flow rate of 10 μL/minute. During the entire immobilization procedure, HBS-P was used as the running buffer.
(§2) Antibody samples were prepared at 5 μg/ml and were injected for 30 seconds at 10 μL/minute. In general, 400 to 680 resonance units of antibodies were captured on the chip.
For orientation: SPR reads the build-up and loss of mass on a sensor chip optically.

The target in experiment [2] is T2, full length human Galectin-3 (human, UniProt P17931 2-250).
T2 construct: Printed as 'full length'; recombinant, immobilized through a histidine tag; also called hu-Gal3-FL; Hu-Gal3-FL
The experiment is described as above. Here is the method: as §1, §2

Experiment [3] has as its target T3, human full-length Galectin-7 (human, UniProt P47929 1-136).
T3 construct: full-length; Histidine-tagged; also called Hu-Gal7; Gal7
Nature of the experiment: ELISA on immobilised antigen (3 µg/mL), purified IgG at 15-20 µg/mL, anti-Fab.HRP, OD 450 nm. Here is the method:
(§3) IgG specificity to Gal3 was tested by checking the absence of binding on human Gall and Gal7 by ELISA.
(§4) Hu-Gall and Hu-Gal7 were immobilized at 3 μg/mL. Purified IgGs were added into the wells (15-20 μg/mL final concentration) and detected with an anti-Fab.HRP antibody. Rabbit antibodies directed against Gall (Abcam ab25138 reference) and Gal7 (Abcam ab108623 reference) were used at 5 μg/mL as antigen-coating positive controls and detected with an anti-rabbit.HRP secondary antibody (7074S-Cell Signaling reference).

The target in experiment [4] is T4, human full-length Galectin-1 (human, UniProt P09382 2-135).
T4 construct: full-length; Histidine-tagged; also called Hu-Gall; Gall
The experiment is described as above. Here is the method:
as §3, §4

For experiment [5], the target named is T1, full length mouse Galectin-3. The experiment in a line: dose-response ELISA on immobilized m-Gal3-FL, IgG. Here is the method:
(§5) To determine the half maximal effective concentration (EC50) of the antibodies, ELISA dose-response experiments were performed on Hu-Gal3-FL and on m-Gal3-FL.
(§6) Hu-Gal3-FL and m-Gal3-FL were immobilized at 3 μg/mL through their His-tag on functionalized microplates as before. A 3.3-fold serial dilution was carried-out with the purified IgGs, added to the wells containing immobilized Hu-Gal3-FL or m-Gal3-FL and detected with an anti-Fab.HRP antibody.
A general note: In an ELISA, binding on a coated surface is turned into a signal by an enzyme label.

The target is the same in experiment [6]. The experiment in a line: ratio of the ELISA EC50 values on Hu-Gal3-FL and m-Gal3-FL. Here is the method:
as §5, §6

Experiment [7] deals with T5, CRD domain of human Galectin-3 (human, UniProt P17931 106-250).
T5 construct: Histidine-tagged; also called hu-Gal3-CRD; Hu-Gal3-CRD
Nature of the experiment: competitive ELISA, inhibition of ASF binding to immobilized Hu-Gal3-CRD. Here is the method:
The inhibitory properties and IC50 of the anti-Gal3 antibodies were determined in an ELISA competitive assay by measuring the binding of ASF to immobilized CRD domain of human Gal3 in absence or presence of the antibodies at different concentrations.
The inhibition assay was performed on Hu-Gal3-CRD which was immobilized at 1 μg/mL through its His-tag on functionalized microplates. A 2-fold or 3-fold serial dilution was carried-out with the purified IgGs and added to the wells with immobilized Hu-Gal3-CRD. ASF (A1908-Sigma reference) was added at 8 μg/mL in each well with or without IgGs. ASF binding to Hu-Gal3-CRD was detected with the HRP-labeled anti-ASF sheep antibody. IC50 were estimated according to the model equation Y=Bottom+(Top−Bottom)/(1+(X/IC50)). Indicative maximal percentages of inhibition were obtained with the formula: 100%−(((mean of bottom plateau values of IgGs)×100%)/mean of irrelevant IgG values)

Experiment [8] deals with T2, full length human Galectin-3. The experiment in a line: dose-response ELISA on immobilized Hu-Gal3-FL, IgG. Here is the method: as §5, §6
The target of experiment [9] is T3, human full-length Galectin-7. The experiment in a line: ELISA on His-tag-immobilised antigen (3 µg/mL), periplasmic extract with scFv, anti-scFvTag.HRP, OD 450 nm. Here is the method:
(§7) Hu-Gal3-FL, Hu-Gal3-CRD, m-Gal3-FL, Hu-Gall and Hu-Gal7 were immobilized at 3 μg/mL final concentration through their histidine tag on functionalized microplates following internal process. Periplasmic extracts containing scFvs were added into the wells and detected with an anti-scFvTag.HRP (horseradish peroxidase) antibody. Rabbit antibodies directed against Gal3 (ab53082-abcam reference), Gall (ab25138-abcam reference), and Gal7 (ab108623-abcam reference) were used at 5 μg/mL as antigen-coating positive controls and detected with an anti-rabbit.HRP secondary antibody (7074S-Cell Signaling reference).

The target of experiment [10] is T4, human full-length Galectin-1. Described as above. Here is the method: as §7

By Kd is commonly meant the constant that tells how readily two partners part at equilibrium. The low end stands for tighter binding, the high end for weaker binding. One may read the EC50 as the concentration giving half of the maximal effect. A high value points to lower potency in that assay. What is called IC50 is the concentration that inhibits the measured activity by half. Low readings indicate greater potency, high ones weaker potency.

T2 sequence (P17931 2-250 limits assumed): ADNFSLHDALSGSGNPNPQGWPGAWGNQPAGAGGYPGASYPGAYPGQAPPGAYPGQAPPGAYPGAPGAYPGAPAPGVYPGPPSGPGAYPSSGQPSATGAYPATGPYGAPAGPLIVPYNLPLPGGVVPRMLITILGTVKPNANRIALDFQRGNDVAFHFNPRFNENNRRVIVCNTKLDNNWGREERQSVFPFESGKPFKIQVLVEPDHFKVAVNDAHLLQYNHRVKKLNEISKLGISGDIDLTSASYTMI
T4 sequence (P09382 2-135 limits assumed): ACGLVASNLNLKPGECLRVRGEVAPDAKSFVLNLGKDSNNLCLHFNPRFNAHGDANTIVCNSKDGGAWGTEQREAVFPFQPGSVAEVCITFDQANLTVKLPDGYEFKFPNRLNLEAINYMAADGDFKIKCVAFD
T1 sequence (P16110 2-264 limits assumed): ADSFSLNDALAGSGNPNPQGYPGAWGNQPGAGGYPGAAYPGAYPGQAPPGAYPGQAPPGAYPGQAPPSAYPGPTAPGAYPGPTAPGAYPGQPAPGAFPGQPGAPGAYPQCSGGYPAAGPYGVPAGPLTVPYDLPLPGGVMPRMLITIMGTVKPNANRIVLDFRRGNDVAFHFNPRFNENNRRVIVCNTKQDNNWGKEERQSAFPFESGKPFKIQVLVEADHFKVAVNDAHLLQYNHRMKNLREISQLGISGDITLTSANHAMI
T3 sequence (P47929 whole entry): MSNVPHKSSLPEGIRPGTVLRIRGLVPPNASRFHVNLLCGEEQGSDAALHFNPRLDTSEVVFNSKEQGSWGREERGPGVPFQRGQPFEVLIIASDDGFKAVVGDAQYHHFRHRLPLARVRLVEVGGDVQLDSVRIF
T5 sequence (P17931 106-250 limits assumed): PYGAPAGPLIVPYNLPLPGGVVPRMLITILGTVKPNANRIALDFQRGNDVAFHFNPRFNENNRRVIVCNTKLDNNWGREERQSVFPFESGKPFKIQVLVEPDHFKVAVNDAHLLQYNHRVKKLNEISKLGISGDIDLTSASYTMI

B1: anti-Gal3 antibody E12 (antibody, V domains shown)
VH: EVQLVESGGSLVKPGGSLRLSCAASGFTFSNYAMNWVRQAPGKGLEWISSIYGSSRSIYYADFVKGRFTISRDNAKNSLYLQMNSLRAEDTAVYYCVRSNNAGMDVWGRGTLVTVSS
VL: QSVLTQPASVSGSPGQSITISCAGTSSDVGGYYDVSWYQQHPGKAPKLMIYYDSYRPSGVSNRFSGSKSGNTASLTISGLQAEDEADYYCSSYTSYSTRVFGGGTKLEIK
On to B1, for which the Kd in [1] came to 7.7 nM; in experiment [2], 6.64 nM. Besides, the binding result in experiment [3] and in experiment [4] was “no binding (tested: 15-20 µg/mL)” each time.

B2: anti-Gal3 antibody E02 (antibody, V domains shown)
VH: EVQLVESGGSLVKPGGSLRLSCAASGFTFSNYAMNWVRQAPGKGLEWISSIYGSSRSISYADFVKGRFTISRDNAKNSLYLQMNSLRAEDTAVYYCVRSSYNYYYGNGMDVWGRGTLVTVSS
VL: QSVLTQPASVSGSPGQSITISCAGTSSDVGGYGGVSWYQQHPGKAPKLMIYYDSYRPSGVSNRFSGSKSGNTASLTISGLQAEDEADYYCSSSTSYSTRVFGGGTKLEIK
Turning to B2, the EC50 came to 76 nM in experiment [5] and 34 nM in experiment [8]. The “Ratio (Human/mouse Gal3 EC50 ratio)” value in [6] was found to be 2. For the same molecule, in [7], the IC50 is 5.2 nM. Besides, in experiment [7], the Max % inhibition is 65%. For the same molecule, the figures for the Kd in experiment [1] and in [2] were 4.13 nM and 7.38 nM, respectively. The binding result in experiment [3] and in [4] was “no binding (tested: 15-20 µg/mL)” throughout.

B3: anti-Gal3 antibody E01 (antibody, V domains shown)
VH: EVQLVESGGSLVKPGGSLRLSCAASGFTFSNNYMNWVRQAPGKGLEWISNINGASRNIAYADFVKGRFTISRDNAKNSLYLQMNSLRAEDTAVYYCVRSSDYDGGMDVWGRGTLVTVSS
VL: QSVLTQPASVSGSPGQSITISCAGTSSDVGGNSYVSWYQQHPGKAPKLMIYYDSYRPSGVSNRFSGSKSGNTASLTISGLQAEDEADYYCSSSTYGSTRVFGGGTKLEIK
With B3, the EC50 in experiment [5] worked out at 25.9 nM; in experiment [8], 14.3 nM. Also, the “Ratio (Human/mouse Gal3 EC50 ratio)” value in experiment [6] is 2. This molecule showed an IC50 in [7] of 3.2 nM. The Max % inhibition in [7] is 63%. For the same molecule, the Kd is 7.81 nM in [1] and 6.26 nM in experiment [2]. The binding result in experiment [3] and in experiment [4] was “no binding (tested: 15-20 µg/mL)” in each case.

B4: anti-Gal3 scFv E02 (scFv, V domains shown, not shown: small tags and cut ends)
VH: EVQLVESGGSLVKPGGSLRLSCAASGFTFSNYAMNWVRQAPGKGLEWISSIYGSSRSISYADFVKGRFTISRDNAKNSLYLQMNSLRAEDTAVYYCVRSSYNYYYGNGMDVWGRGTLVTVSS
VL: QSVLTQPASVSGSPGQSITISCAGTSSDVGGYGGVSWYQQHPGKAPKLMIYYDSYRPSGVSNRFSGSKSGNTASLTISGLQAEDEADYYCSSSTSYSTRVFGGGTKLEIK
notes: Periplasmic extract from E. coli; also called E02 (scFv)
Turning to B4, the binding result in experiment [9] and in experiment [10] was “no binding” in each case.

B5: anti-Gal3 scFv B12 (scFv, V domains shown, not shown: small tags and cut ends)
VH: EVQLVESGGSLVKPGGSLRLSCAASGFTFSNDDMNWVRQAPGKGLEWISSIDGSSRSIYYADFVKGRFTISRDNAKNSLYLQMNSLRAEDTAVYYCVRSSGYSGGGMDVWGRGTLVTVSS
VL: QSVLTQPASVSGSPGQSITISCAGTSSDVGGSYNVAWYQQHPGKAPKLMIYSDSYRPSGVSNRFSGSKSGNTASLTISGLQAEDEADYYCSSYTSNSARVFGGGTKLEIK
notes: Periplasmic extract from E. coli; also called B12 (scFv)
With B5, the binding result in [9] and in experiment [10] was “no binding” each time.

B6: anti-Gal3 scFv D11 (scFv, V domains shown, not shown: small tags and cut ends)
VH: EVQLVESGGSLVKPGGSLRLSCAASGFTFSNYNMNWVRQAPGKGLEWISSIYGSSRYIYYADFVKGRFTISRDNAKNSLYLQMNSLRAEDTAVYYCVRSSYGGMDVWGRGTLVTVSS
VL: QSVLTQPASVSGSPGQSITISCAGTSSDVGGSYNVAWYQQHPGKAPKLMIYYDSYRPSGVSNRFSGSKSGNTASLTISGLQAEDEADYYCSSYTGYSTRVFGGGTKLEIK
notes: Periplasmic extract from E. coli; also called D11 (scFv)
Take B6: the binding result in [9] and in experiment [10] was “no binding” in each case.

B7: anti-Gal3 antibody B12 (antibody, V domains shown)
VH: EVQLVESGGSLVKPGGSLRLSCAASGFTFSNDDMNWVRQAPGKGLEWISSIDGSSRSIYYADFVKGRFTISRDNAKNSLYLQMNSLRAEDTAVYYCVRSSGYSGGGMDVWGRGTLVTVSS
VL: QSVLTQPASVSGSPGQSITISCAGTSSDVGGSYNVAWYQQHPGKAPKLMIYSDSYRPSGVSNRFSGSKSGNTASLTISGLQAEDEADYYCSSYTSNSARVFGGGTKLEIK
In the case of B7, the Kd in experiment [1] was 3.47 nM; in experiment [2], 8.8 nM. Besides, the binding result in [3] and in experiment [4] was “no binding (tested: 15-20 µg/mL)” in each case.

B8: anti-Gal3 antibody H07 (antibody, V domains shown)
VH: EVQLVESGGSLVKPGGSLRLSCAASGFTFSNYNMNWVRQAPGKGLEWISNIDGSSRYIYYADFVKGRFTISRDNAKNSLYLQMNSLRAEDTAVYYCVRSYYGGMDVWGRGTLVTVSS
VL: QSVLTQPASVSGSPGQSITISCAGTSSDVGGYYNVAWYQQHPGKAPKLMIYYDSYRPSGVSNRFSGSKSGNTASLTISGLQAEDEADYYCSSSTGYSTRVFGGGTKLEIK
On to B8, for which the EC50 in experiment [5] was 88 nM; in [8], 2.4 nM. Moreover, the “Ratio (Human/mouse Gal3 EC50 ratio)” value in experiment [6] was 37. Moreover, the half-maximal inhibitory concentration (IC50) in [7] worked out at 6 nM. Besides, the Max % inhibition in experiment [7] turned out to be 74%. Also, the Kd stood at 4.86 nM in experiment [1] and 5.65 nM in experiment [2]. Also, the binding result in experiment [3] and in experiment [4] was “no binding (tested: 15-20 µg/mL)” each time.
